Laboratory results published in PMC11413682.

How the values were obtained:
[1] = molecular target: CUL2^ZYG11B (residues 490–728) (human) (UniProt Q9C0D3); experiment: ITC; SNX11-degron peptide titrated into CUL2^ZYG11B that was pre-incubated with the ORF10 peptide (pre-formed ZYG11B/ORF10 N5 complex)
[2] = molecular target: CUL2^ZYG11B (residues 490–728) (human) (UniProt Q9C0D3); experiment: ITC; MicroCal iTC200; peptides (0.5–1 mmol/L) in the syringe, CUL2^ZYG11B(490–728) (0.03 mmol/L) in the cell; 18 injections of 2 μL; repeated 3 times

CUL2^ZYG11B (residues 490–728) (human), sequence (Q9C0D3 490-728): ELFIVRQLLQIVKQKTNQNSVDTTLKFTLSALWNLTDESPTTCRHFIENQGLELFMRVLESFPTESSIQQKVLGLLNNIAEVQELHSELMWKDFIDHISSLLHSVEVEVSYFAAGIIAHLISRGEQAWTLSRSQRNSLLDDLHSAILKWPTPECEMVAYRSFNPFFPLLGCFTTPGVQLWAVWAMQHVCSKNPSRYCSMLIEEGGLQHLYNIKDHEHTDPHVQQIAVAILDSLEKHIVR

Substance	fold lower affinity for CUL2^ZYG11B pre-bound to the ORF10 peptide than for CUL2^ZYG11B alone [1] [fold]	Kd [2] [µM]
SNX11-degron peptide	13	–
SARS-CoV-2 ORF10 N4 peptide	–	5.18
SARS-CoV-2 ORF10 N3 peptide	–	14.5
